T1: recombinant OSM (Genscript-z03132) (UniProt P13725 26-221, limits assumed)
T1 sequence (looked up): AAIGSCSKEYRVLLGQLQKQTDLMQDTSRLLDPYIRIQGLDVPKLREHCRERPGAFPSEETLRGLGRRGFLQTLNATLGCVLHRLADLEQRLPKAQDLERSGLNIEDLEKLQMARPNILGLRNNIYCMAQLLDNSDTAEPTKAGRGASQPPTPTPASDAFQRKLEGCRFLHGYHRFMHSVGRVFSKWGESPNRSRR

T2: recombinant IL-27 (R&D systems, 2526-IL-010) (UniProt Q8NEV9 29-243; Q14213 21-229)
T2 construct: the bought product may be a single-chain fusion
T2 sequence (looked up) 1: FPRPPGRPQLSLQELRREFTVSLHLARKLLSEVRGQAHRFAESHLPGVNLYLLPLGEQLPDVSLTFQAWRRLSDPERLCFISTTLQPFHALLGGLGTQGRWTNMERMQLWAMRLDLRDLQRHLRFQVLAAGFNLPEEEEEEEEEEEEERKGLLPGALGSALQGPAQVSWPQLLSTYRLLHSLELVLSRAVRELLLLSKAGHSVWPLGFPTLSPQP
T2 sequence (looked up) 2: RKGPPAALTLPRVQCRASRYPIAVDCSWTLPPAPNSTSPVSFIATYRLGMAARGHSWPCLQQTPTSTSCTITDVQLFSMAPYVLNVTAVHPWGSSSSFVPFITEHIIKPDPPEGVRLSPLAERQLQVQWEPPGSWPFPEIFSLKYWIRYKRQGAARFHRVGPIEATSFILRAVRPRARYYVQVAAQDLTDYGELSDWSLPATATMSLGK

T3: recombinant CNTF (R&D systems, 257-NT-010) (UniProt P26441 2-200)
T3 sequence (looked up): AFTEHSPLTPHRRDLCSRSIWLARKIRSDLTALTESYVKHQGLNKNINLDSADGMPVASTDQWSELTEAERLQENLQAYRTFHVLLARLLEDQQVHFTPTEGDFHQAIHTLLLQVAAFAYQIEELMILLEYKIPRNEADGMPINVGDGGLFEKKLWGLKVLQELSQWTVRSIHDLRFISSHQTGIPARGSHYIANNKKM

T4: recombinant CT-1 (R&D systems, 612-CD-010) (UniProt Q16619 2-201)
T4 sequence (looked up): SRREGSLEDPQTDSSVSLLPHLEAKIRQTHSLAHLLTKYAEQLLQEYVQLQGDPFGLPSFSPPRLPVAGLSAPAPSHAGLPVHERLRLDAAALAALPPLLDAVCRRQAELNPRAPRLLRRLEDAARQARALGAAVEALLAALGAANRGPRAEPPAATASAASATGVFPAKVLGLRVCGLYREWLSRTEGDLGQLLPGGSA

T5: recombinant IL-11 (LSBio, LS-G132887-10) (UniProt P20809 22-199)
T5 sequence (looked up): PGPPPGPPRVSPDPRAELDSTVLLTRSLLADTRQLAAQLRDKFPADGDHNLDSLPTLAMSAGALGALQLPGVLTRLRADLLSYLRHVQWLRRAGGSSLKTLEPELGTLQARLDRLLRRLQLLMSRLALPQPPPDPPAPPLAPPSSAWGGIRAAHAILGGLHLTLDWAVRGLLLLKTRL

T6: recombinant IL-31 (Peprotech, 200-31) (UniProt Q6EBC2 24-164)
T6 sequence (looked up): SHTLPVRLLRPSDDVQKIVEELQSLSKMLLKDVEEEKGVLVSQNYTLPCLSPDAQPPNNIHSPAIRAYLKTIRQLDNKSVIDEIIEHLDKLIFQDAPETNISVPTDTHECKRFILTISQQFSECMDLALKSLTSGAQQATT

T7: recombinant CLC (R&D systems, 962-CL-050) (UniProt Q9UBD9 28-225)
T7 sequence (looked up): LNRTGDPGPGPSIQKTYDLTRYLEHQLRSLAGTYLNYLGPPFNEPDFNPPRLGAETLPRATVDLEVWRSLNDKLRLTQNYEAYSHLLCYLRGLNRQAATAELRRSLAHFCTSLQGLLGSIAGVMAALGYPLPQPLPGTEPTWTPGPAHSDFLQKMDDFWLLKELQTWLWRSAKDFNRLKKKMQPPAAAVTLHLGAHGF

T8: IL-11-Fc protein (UniProt P20809 22-199, limits assumed)
T8 construct: also called IL-11 recombinant protein with Fc tag; not shown: Fc tag
T8 sequence (looked up): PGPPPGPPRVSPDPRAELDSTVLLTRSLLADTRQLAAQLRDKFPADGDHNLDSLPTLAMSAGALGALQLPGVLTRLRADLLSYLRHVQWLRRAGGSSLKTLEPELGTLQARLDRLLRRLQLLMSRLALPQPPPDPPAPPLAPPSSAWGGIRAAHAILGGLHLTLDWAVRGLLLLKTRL

T9: recombinant human protein antigen hu-IL-11-His tag (human, UniProt P20809 22-199)
T9 construct: also called IL-11-His protein; not shown: His tag
T9 sequence (looked up): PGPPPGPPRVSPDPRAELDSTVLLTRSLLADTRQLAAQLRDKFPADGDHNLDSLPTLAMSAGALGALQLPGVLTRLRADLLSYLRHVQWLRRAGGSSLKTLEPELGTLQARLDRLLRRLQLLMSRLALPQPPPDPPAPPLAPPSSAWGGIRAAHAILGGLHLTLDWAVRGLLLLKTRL


Legend:
[1] = target: T1, recombinant OSM (Genscript-z03132); assay: ELISA, cytokine coated
[2] = target: T2, recombinant IL-27 (R&D systems, …); assay: ELISA, cytokine coated
[3] = target: T3, recombinant CNTF (R&D systems, …); assay: ELISA, cytokine coated
[4] = target: T4, recombinant CT-1 (R&D systems, …); assay: ELISA, cytokine coated
[5] = target: T10, recombinant LIF (Peprotech, 300-05) (UniProt P15018 23-202); assay: ELISA, cytokine coated
[6] = target: T5, recombinant IL-11 (LSBio, LS-G132887-10); assay: ELISA, cytokine coated
[7] = target: T11, recombinant IL-6 (Sinobiological-10395-HNAE) (UniProt P05231 30-212); assay: ELISA, cytokine coated
[8] = target: T6, recombinant IL-31 (Peprotech, 200-31); assay: ELISA, cytokine coated
[9] = target: T7, recombinant CLC (R&D systems, …); assay: ELISA, cytokine coated
[10] = target: T1, recombinant OSM (Genscript-z03132); assay: ELISA, cytokine coated; remark: listed apart in the source
[11] = target: T2, recombinant IL-27 (R&D systems, …); assay: ELISA, cytokine coated; remark: listed apart in the source
[12] = target: T3, recombinant CNTF (R&D systems, …); assay: ELISA, cytokine coated; remark: listed apart in the source
[13] = target: T4, recombinant CT-1 (R&D systems, …); assay: ELISA, cytokine coated; remark: listed apart in the source
[14] = target: T10, recombinant LIF (Peprotech, 300-05); assay: ELISA, cytokine coated; remark: listed apart in the source
[15] = target: T11, recombinant IL-6 …; assay: ELISA, cytokine coated; remark: listed apart in the source
[16] = target: T6, recombinant IL-31 (Peprotech, 200-31); assay: ELISA, cytokine coated; remark: listed apart in the source
[17] = target: T7, recombinant CLC (R&D systems, …); assay: ELISA, cytokine coated; remark: listed apart in the source
IL-11-Fc protein = target: T8, IL-11-Fc protein; assay: flow cytometry competition: IL-11-Fc plus antibody on membrane-IL-11R CHO cells
Excerpt: The secondary antibody (Goat-anti-Fc-FITC) (Abcam, ab98529) conjugated with FITC fluorophore was used for detection.

[18] = target: T9, recombinant human protein antigen …; assay: BLI (Octet QKe), IL-11 (His tag) on Ni-NTA sensor, antibody as analyte
Experimental: The analytes were diluted in 7 concentration gradients, the binding time was 60 s and the dissociation time was 1000 s. The buffer was 20 mM PBS, 0.15M NaCl, 0.1% BSA, 0.05% Tween 20, pH 7.4. […] In this example, Pall ForteBio (Octet QKe) instrument was used to determine the affinity of antibodies for antigens.

T10 sequence (P15018 23-202 limits assumed): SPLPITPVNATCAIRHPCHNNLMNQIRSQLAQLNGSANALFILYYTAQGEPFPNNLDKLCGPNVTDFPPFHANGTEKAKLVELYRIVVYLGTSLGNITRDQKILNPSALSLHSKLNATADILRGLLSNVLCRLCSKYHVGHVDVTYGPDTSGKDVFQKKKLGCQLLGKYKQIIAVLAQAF

OD450 nm [1] [OD450] | OD450 nm [2] [OD450] | OD450 nm [3] [OD450] | OD450 nm [4] [OD450] | OD450 nm [5] [OD450] | OD450 nm [6] [OD450] | OD450 nm [7] [OD450] | OD450 nm [8] [OD450] | OD450 nm [9] [OD450] | binding result [10] | binding result [11] | binding result [12] | binding result [13] | binding result [14] | binding result [15] | binding result [16] | binding result [17] | IC50 (IL-11-Fc protein) [µg/mL] | Kd [18] [nM] | koff [18] [s⁻¹] | Binder | other results
0.045 | 0.048 | 0.036 | 0.034 | 0.037 | 1.93 | 0.049 | 0.036 | 0.033 | no binding | no binding | no binding | no binding | no binding | no binding | no binding | no binding | ~21 | 0.069 | 1.21e-05 | 5-20E11-5F2 (recombinant, expressed in CHO, Example 6) (antibody, human IgG1, kappa, V domains shown) VH: QVQLQQSGAELVRPGTSAKISCKASDYTFTNYWLGWLKQRPGHGLEWIGHIYPGGGYTNYNEKFKGKATLTADTSSSTAYMQLSSLTSEDSAVYFCARVRSGNDALDFWGQGTSVTVSS VL: not shown | kon [18]: 175000 M⁻¹ s⁻¹
0.102 | 0.035 | 0.064 | 0.041 | 0.084 | 1.88 | 0.039 | 0.088 | 0.042 | no binding | no binding | no binding | no binding | no binding | no binding | no binding | no binding | ~7 | 0.0393 | 4.16e-05 | 3-6A4 (recombinant, expressed in CHO, Example 6) (antibody, human IgG1, kappa, V domains shown) VH: QIQLVQSGPELKKPGETVKISCKASGYTFTTNGINWVKQAAGKGLKWMGWINTNTGEPTNAEELKGRFAFSLETSASTAYLQINNLKNEDAAIYFCAREGAFGLDYWGQGTSVTVSS VL: SIVMTQSPKFLLVSAGDRVIITCKASQSVSNDVVWYQQKPGQSPKLLIYYGSHRNTGVPTRFTGSGYGTDFTFTISTVQAEDLAVYFCQQDFFSPWTFGGGTKLEIKR | kon [18]: 1.06e+06 M⁻¹ s⁻¹
